# Reference: the RNAGym collection of RNA variant scans (doi:10.1073/pnas.2313332121)
# Variants at the floor of the assay were thinned out.
# B1: TPR 5TU (parent)
# chain: GGAUCUUCUCGAUCUAACAAAAAAGACAAAUCUGCCACAAAGCUUGAGAGCAUCUUCGGAUGCAGAGGCGGCAGCCUUCGGUGGCGCGAUAGCGCCAACGUUCUCAACUAUGACACGCAAAACGCGUGCUCCGUUGAAUGGAGUUUAUCAUG
# Variants of: B1
# Assay: polymerase ribozyme fitness, log enrichment relative to wild type (log ratio); higher = more active; in vitro selection for triplet polymerase activity
# Procedure, shortened: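 Streptavidin-bead capture of gel-excised extended constructs, followed by RT-PCR, closed a single triplicate in vitro selection round. That round began by annealing PCR-built, transcribed mutant libraries of each subunit of a heterodimeric triplet polymerase ribozyme with a biotinylated primer, the partner subunit and triplets, then incubating them frozen at −7 °C. After Illumina sequencing of inputs and outputs, genotypes needed ≥10 input reads and ≥1 read per output. Fitness is the base-2 logarithm of genotype enrichment over wild-type enrichment, using inverse-variance-weighted replicate averages.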
row,Variant,polymerase ribozyme fitness (log ratio)
1,GGAUCUUCUCGAUCUAACAAAUAAGACAAAUCUGCCACAAAGCUUGAGAGCAUCUUCGGAAGCAGAGGCGGCAGCCUUCGGUGGCGCGAUAGCGCUAACGUUCUCAACUAUGACACGCAAAACGCGUGCUCCGUUGAAUGGAGUUUAUCAUG,-0.569
2,GGAUCUUCUCGAUCUAACAAAUAAGACAAAUCUGCCACAAAGCUUGAGAGCAUCUGCGGAUGCAGAGGCGGCAGCCUUCGGUGGCGCGAUAGCGCCAACGUUCUCAACUAUGACACGCAAAACGCGUGCUCCGUUGAAUGGAGUUUAUCAUG,-0.902
3,GGAUCUUCUCGAUCUAACAAAUAAGACAAAUCUGCCACAAAGCUUGAGAGCAUCUUCGGAUGCAGAGGCGGCAGCCUUCGGUGGCGCGAUAGCGCCAACGUUCUCAACUAUGACACGCAAAACGCGUGCUCCGUUGAAUGGAGUUUAACAUG,-2.76
4,GGAUCUUCUCGAUCUAACAAAACUGACAAAUCUGCCACAAAGCUUGAGAGCAUCUUUAGAAGCAGAGGCGGCAGCCUUCGGUGGCGCGAUAGGGCCAACGUUUUCAACUAUGACACGUAAAACGCGUGCUCCGUUGAAUGGAGUUUAUCAUG,≤ -4.2
5,GGAUCUUCUCGAUCUAACAAAUAAGACAAAUCUGCCACAAAGCUUGAGAGCAUCUUCGGAUGCAGAGGCGGCAGCCUUCGGUGGCGCGAUAGCGCCAACGUUCUCAACUAUGACACGCAAAACGCGUGCUCCGAUGAAUGGAGUUUAUCAUG,-2.01
6,GGAUCUUCUCGAUCUAACAAAACAGAUAAGUCUGCCACAAAGCUUGAGAGCAUCUUCGGAUGCAGAGGCGGCAGCCUUCGGUGGCGCGAUAGGGCCAACGAUCGCAUCUAUGACACGCAAAACGCGUGCUCCGUUGAAUGGAGUUUAUCAUG,≤ -4.2
7,GGAUCUUCUCGAUCUAACAAAUAAGACAAAUCUGCCACAAAGCUUGAGAGCAUCUACGGAUGCAGAGGCGGCAGCCUUCGGUGACGCGAUAGCGCCAACGUUCUCAACUAUGACACGCAAAACGCGUGCUCCGUUCAAUGGAGUUUAUCAUG,-3.75
8,GGAUCUUCUCGAUCUAACAAAACAGACAAAUAUGCCACAAAGCUUGAGAGCAUCUACGGGUGCAGAGGCGGCAGCCUUCGGUGGCGCGAUAGCGCCAACGUUAUCAACUGUCACACGCAAAACGCGUGCUCCGUUGAAUGGAGUUUAUCAUG,≤ -4.2
9,GGAUCUUCUCGAUCUAACAAAACAGACAAAUCUGCCACAAAGCUUGAGGGCAUCUUCGGAUGCAGAGGCGGCAGCCUUCGGUGGCGCGAUAGUGCCAACGUUCUCAACUAUGACACGCAAAACGCGUGCUCCGUUGAAUGGAGUUUACCAUG,≤ -4.2
10,GGAUCUUCUCGAUCUAACAAAACAGACAAAUCUGCCGCAAAGCUUGAGAGCAACUUCGGAUGCAGGGGCGGCAGCCUUCGGUGGCGCUAUAGCGCCAACGUUCUCAACUAUGACACGCAAAACGCGUGCACCGUUGAAUGGAGUUAAUCAUG,≤ -4.2
11,GGAUCUUCUCGAUCUAACAAAACGGACCAAUCUGCCACAAAGCUUGAGAGCAUCUUCGGAUGUAGAAGCGGCAGCCUUCGGUGGCGCGAUAGCGCCAACGUUCUCAACUAUGACACGCAAUACGCGUGCUCCGUUGAAUGGAGAUUAUCAUG,≤ -4.2
12,GGAUCUUCUCGAUCUAACAAAACAGACACAUCUGCCAUAAAGCUUGAGAGCAUCUUGGGAUGCCGAGGCGGCAGCCUUCGGUGUCGCGAUAGCGCCAACGUUCUCAACUAUGACACGCAAAACGCGUGCUCCGUUGAAUGGAGUUUAUCAUG,≤ -4.2
13,GGAUCUUCUCGAUCUAACAAAACAGACAUAUCUGCCACAAAGCUUGAGAGCAUCUUCGGAUGCAGAGCCGGCAGCCUUCGGGGGCGCGAUAGCGCCAACGUUCUCAACUAUGACACGCAAAACGCGUGCUCCUAUGAUUGGAGUUUAUCAUG,≤ -4.2
14,GGAUCUUCUCGAUCUAACAAAACAGACAACUCUGCCACAAAGCUUGAGAACAUCUUCGGAUGCAGGGGCGGCAGCCUUCGGUGGCGCGAUAGCGCAAUCGUUCUCAACUAUGACACGCAAAACGCGUCCUCCGUUGAAUGGAGUUUAUCAUG,≤ -4.2
15,GGAUCUUCUCGAUCUAACAAAACAGAGAAAUCUGCCACAAAGCUUGAGAGCAUCUUCGGAAGCAGAGGCGGCAGCCAUCGGUGGCGCGAUUGCGCCAACGUUCUCAACUAUGACACGCAAAACGCGUGCUCCGUUCAAUGGAGUUUAUCAUG,≤ -4.2
16,GGAUCUUCUCGAUCUAACAAAACAGUCAAAUCGGCCACAAAGCUUGAGAGCAUCUUCGGAUGCAGAGGCGGCAGCAUUCGGUGGCGCGAUAGCGCCAACGGUCUCAACUAUGACACGCAAAACGCGUGCUCCGUUGAAUGGAGUGUAUCAUG,≤ -4.2
17,GGAUCUUCUCGAUCUAACAAAUAAGACAAAUCUGCCACAAAGCUUGAGAGCAUCUUCGGAUGCAGAGGCGGCAGCCUUCGGAGGCGCGAUAGCGCUAACGUUCUCAACUAUGACACGCAAAACGCGUGCUCCGUUGAAUGGAGUUUAUCAUG,0.375
18,GGAUCUUCUCGAUCUAACAAAACAGACAAAUCUGCCACAACGCUUGAGAGCAUCUUCGGAUGCAGAGGCGGCAGACUUCGGUGACGCGAUAGCGCCAACGUUCUCAACUAUGACUCGCAAAACGCGUGCUCCGUUGAAUGGAGUUUAUCAUA,≤ -4.2
19,GGAUCUUCUCGAUCUAACAAAACAGACACAGCCGCCACAAAGCUUGAGAGCAUCUUCGGAUGCAGAGGCGGCAGCCUUCGGUGGCGCGAUAGCGUUAACGUUCUCAUCUAUGACACGCAAAACGCGCGCUCCGUUGACUGGAGUUUAUCAUG,≤ -4.2
